B1: Twister Ribozyme (parent)
chain: AACACUGCCAAUGCCGGUCCCAAGCCCGGAUAAAAGUGGAGGGGGCGG

Variants of: B1
Assay: self-cleavage, relative activity (ratio to wild type); higher = more cleavage; co-transcriptional
Work on A4G A34G yielded a self-cleavage of 0.61.
In the case of A4G U6G, the self-cleavage is reported as 0.074.
A4G U6A showed a self-cleavage of 0.866.
In the case of C5A C25A, the self-cleavage is reported as 0.068.
Variant C5A C25U has a self-cleavage of 0.236.
C5A A35C showed a self-cleavage of 0.655.
Work on A4U C25A yielded a self-cleavage of 0.029.
A4C C26U showed a self-cleavage of 0.0418.
A4C C26G gave a self-cleavage of 0.103.
In the case of A4U A10U, the self-cleavage is reported as 0.0773.
Variant A4U A10C has a self-cleavage of 0.156.
Variant A4G A40U has a self-cleavage of 0.163.
Variant A4G A40G has a self-cleavage of 0.17.
Work on C3U G44C yielded a self-cleavage of 0.446.
Variant A4U C5A has a self-cleavage of 0.0794.
Work on C5A A22G yielded a self-cleavage of 0.0856.
C5A A22U showed a self-cleavage of 0.249.
With C5A A22C the self-cleavage was 0.601.
C5A C15U gave a self-cleavage of 0.398.
C3U G7U gave a self-cleavage of 0.0522.
For C5A A30C, the self-cleavage was 0.348.
C5A A30G gave a self-cleavage of 0.491.
With A4U A35C the self-cleavage was 0.129.
In the case of A4U A35U, the self-cleavage is reported as 0.196.
With C3U G39A the self-cleavage was 0.146.
With C3U G39C the self-cleavage was 0.0856.
Work on A4U A23C yielded a self-cleavage of 0.0467.
A4U A23G showed a self-cleavage of 0.0721.
A4C G43U showed a self-cleavage of 0.103.
Work on A4C G43A yielded a self-cleavage of 0.0357.
A4C C15U gave a self-cleavage of 0.271.
Variant A4C C15A has a self-cleavage of 0.12.
Variant C3G G45U has a self-cleavage of 0.31.
In the case of C3U C5U, the self-cleavage is reported as 0.315.
With C3U C5A the self-cleavage was 0.219.
With C3U C5G the self-cleavage was 0.105.
With A4U U31C the self-cleavage was 0.0955.
A4C C8G showed a self-cleavage of 0.071.
In the case of A4G C8G, the self-cleavage is reported as 0.289.
For A4U G43C, the self-cleavage was 0.0736.
C5A G13C showed a self-cleavage of 0.105.
C5A G13A gave a self-cleavage of 0.132.
For C5A G13U, the self-cleavage was 0.0864.
With A4G C25G the self-cleavage was 0.189.
A4G C25A gave a self-cleavage of 0.054.
In the case of C5A G28C, the self-cleavage is reported as 0.229.
Variant C3U G36U has a self-cleavage of 0.064.
C3U G36C showed a self-cleavage of 0.0744.
Variant A4G A30G has a self-cleavage of 0.81.
In the case of C3U C27U, the self-cleavage is reported as 0.231.
In the case of C3U C27A, the self-cleavage is reported as 0.159.
For C3U C27G, the self-cleavage was 0.0437.
Work on C3U U31A yielded a self-cleavage of 0.249.
Variant A4U G47C has a self-cleavage of 0.111.
With A4C A10U the self-cleavage was 0.203.
In the case of A4U G16C, the self-cleavage is reported as 0.0898.
In the case of A4U G16U, the self-cleavage is reported as 0.0436.
A4C G36U showed a self-cleavage of 0.0758.
In the case of A4G A32U, the self-cleavage is reported as 0.945.
A4G A32C showed a self-cleavage of 0.719.
For C5A G7A, the self-cleavage was 0.0771.
C3G U18A showed a self-cleavage of 0.116.
C3G U18G gave a self-cleavage of 0.0365.
With C3U C9U the self-cleavage was 0.253.
Variant A4G U12A has a self-cleavage of 1.17.
For A4G U12G, the self-cleavage was 0.673.
Work on A4C G44C yielded a self-cleavage of 0.0939.
For A4C G44U, the self-cleavage was 0.134.
C3U A34C gave a self-cleavage of 0.155.
Variant A4G G28U has a self-cleavage of 0.644.
With A4G G28A the self-cleavage was 0.58.
C3U G47A showed a self-cleavage of 0.361.
C3U G47U showed a self-cleavage of 0.513.
For A4U G38A, the self-cleavage was 0.0789.
C3U G43A gave a self-cleavage of 0.0963.
Work on C3U G43U yielded a self-cleavage of 0.0863.
For C3U G43C, the self-cleavage was 0.0646.
C3U C19U gave a self-cleavage of 0.374.
C3U C19A gave a self-cleavage of 0.0875.
Variant C5A C27A has a self-cleavage of 0.0839.
Variant C5A C27G has a self-cleavage of 0.0807.
Work on A4U G17C yielded a self-cleavage of 0.0361.
In the case of A4U A40U, the self-cleavage is reported as 0.0743.
Variant A4U A40C has a self-cleavage of 0.0425.
In the case of A4G C46A, the self-cleavage is reported as 0.785.
A4U C26A showed a self-cleavage of 0.0524.
With C5A C9U the self-cleavage was 0.0659.
For C5A C9A, the self-cleavage was 0.123.
In the case of A4C C27G, the self-cleavage is reported as 0.0637.
For A4U C21G, the self-cleavage was 0.0541.
A4U C21A gave a self-cleavage of 0.0381.
With A4U C21U the self-cleavage was 0.0656.
In the case of A4U G41C, the self-cleavage is reported as 0.0883.
With A4G C21A the self-cleavage was 0.0832.
A4G C21G gave a self-cleavage of 0.0683.
Variant A4G G38A has a self-cleavage of 0.867.
Work on A4C A35C yielded a self-cleavage of 0.301.
With A4C A35U the self-cleavage was 0.272.
Variant C5A A32U has a self-cleavage of 0.454.
Work on C5A A32C yielded a self-cleavage of 0.413.
With C3U G38C the self-cleavage was 0.288.
Work on C3U G38A yielded a self-cleavage of 0.396.
In the case of A4C U12A, the self-cleavage is reported as 0.193.
A4C U12G showed a self-cleavage of 0.332.
Work on A4C G16U yielded a self-cleavage of 0.107.
Variant A4C G16C has a self-cleavage of 0.0536.
With A4G A33G the self-cleavage was 0.941.
In the case of A4G A33C, the self-cleavage is reported as 0.721.
Variant A4G C15A has a self-cleavage of 0.631.
Variant A4C G47C has a self-cleavage of 0.0906.
A4C G47A showed a self-cleavage of 0.178.
For A4G C5A, the self-cleavage was 0.892.
With A4G C5G the self-cleavage was 0.274.
Variant A4G C5U has a self-cleavage of 0.855.
Work on A4U C46A yielded a self-cleavage of 0.115.
In the case of A4U C46U, the self-cleavage is reported as 0.125.
Work on A4U C46G yielded a self-cleavage of 0.105.
Work on C3U G13C yielded a self-cleavage of 0.168.
In the case of C3U G13U, the self-cleavage is reported as 0.113.
With C3U C21G the self-cleavage was 0.221.
With C3U C21A the self-cleavage was 0.0567.
Work on A4G G47A yielded a self-cleavage of 0.91.
For A4G G47U, the self-cleavage was 0.902.
Variant A4G A10C has a self-cleavage of 0.762.
For A4G A10G, the self-cleavage was 0.892.
Variant A4G G39A has a self-cleavage of 0.322.
With A4C A22U the self-cleavage was 0.0826.
Work on A4C A22C yielded a self-cleavage of 0.0993.
With C5A A33U the self-cleavage was 0.492.
C5A A23U showed a self-cleavage of 0.074.
In the case of A4G C27U, the self-cleavage is reported as 0.74.
Work on A4G C27A yielded a self-cleavage of 0.279.
Variant A4U A22C has a self-cleavage of 0.0902.
A4U A22G showed a self-cleavage of 0.0233.
With A4G G48U the self-cleavage was 0.979.
With A4G C9U the self-cleavage was 0.549.
With A4G C9G the self-cleavage was 0.601.
With A4C C20U the self-cleavage was 0.0732.
For A4U G42A, the self-cleavage was 0.0876.
In the case of A4U G42C, the self-cleavage is reported as 0.103.
C3G U6G showed a self-cleavage of 0.015.
In the case of C3G U6A, the self-cleavage is reported as 0.13.
C3G U6C showed a self-cleavage of 0.0367.
For C3U G16A, the self-cleavage was 0.248.
Work on C3U G16U yielded a self-cleavage of 0.183.
C3U G16C showed a self-cleavage of 0.163.
For C3G G44A, the self-cleavage was 0.509.
A4C C46G gave a self-cleavage of 0.142.
For A4C C46A, the self-cleavage was 0.063.
Variant A4G C14G has a self-cleavage of 0.276.
For A4G C14A, the self-cleavage was 0.76.
Work on A4G C14U yielded a self-cleavage of 0.957.
In the case of A4G A11G, the self-cleavage is reported as 0.96.
With A4G G16U the self-cleavage was 0.839.
For A4G G16C, the self-cleavage was 0.243.
Variant A4G G16A has a self-cleavage of 0.918.
A4C G7C gave a self-cleavage of 0.0903.
In the case of A4G G13A, the self-cleavage is reported as 0.563.
A4C G17A gave a self-cleavage of 0.0548.
For A4C G17U, the self-cleavage was 0.0801.
C3U G17A gave a self-cleavage of 0.174.
For C3U U6C, the self-cleavage was 0.0788.
For C3U U6A, the self-cleavage was 0.144.
With A4U G48C the self-cleavage was 0.193.
A4U G48A showed a self-cleavage of 0.191.
In the case of A4C A34C, the self-cleavage is reported as 0.0803.
A4C A32U showed a self-cleavage of 0.159.
